Laboratory results taken from PMC5750218, “Protein-inspired antibiotics active against vancomycin- and daptomycin-resistant bacteria” (Nature Communications, 2018).
Where two headings read alike, the source gives them in different places.

Test: In vivo pharmacokinetics in mice
Details: mouse; for level at […]: 0.250 h; for level at 0.5 h: 0.500 h; for MRT inf: read-out: MRT0-inf; for MRT last: read-out: MRT0-last
[1] = male, CD1, plasma, 2 mg/kg IV, read-out: Plasma concentration, Mean IV
[2] = male, CD1, plasma, 10 mg/kg SC, read-out: Plasma concentration, Mean SC

Procedure: Performed by WuXi AppTec (Shanghai) Co., Ltd. Seven to 9-week-old male CD1 mice (SLAC Laboratory Animal Co. Ltd., Shanghai, China) weighing 25–35 g were acclimated for approximate 3 days before being used in the study. Animals are group housed during acclimation and in-life study in compliance with the National Research Council 'Guide for the Care and Use of Laboratory Animals.' The animal room environment is controlled (target conditions: temperature 18 to 26 °C, relative humidity 30–70%, 12 h artificial light and 12 h dark) with temperature and relative humidity monitored daily. Animals were deprived of food for approximately 16 h before formulation administration then allowed access to Certified Rodent Diet (Catalogue # M-01F, Shanghai SLAC Laboratory Animal Co. Ltd.) ad libitum 4 h post dosing. Water was autoclaved before being provided to the animals ad libitum. Formulations of compounds were prepared on the morning of the dosing day. The formulation for the IV group was filtered with filter of 0.22 μm before being dosed to animals. After dose formulation preparation, duplicate 50 μL aliquots were removed from each dose formulation for use in dose validation. For each compound studied, three mice were dosed intravenously (IV) administered to each animal via tail vein per facility SOPs using test article formulated in deionised water at 1 mg mL^−1 with a dose volume of 2 mg mL^−1, providing a dose of 2 mg mL^−1 (based on free base concentration). An additional three mice were dosed subcutaneously (SC) administered to each animal via subcutaneous bolus on each animals’ back per facility SOPs using test article formulated in deionised water at 2 mg mL^−1 with a dose volume of 5 mg mL^−1, providing a dose of 10 mg mL^−1. All animals were killed at the last study time point (100% CO2 was introduced into the animal box).
Plasma samples were collected as the following target times after each dose administration: IV Sampling Time points (hours post dosing): 0, 0.083, 0.25, 0.5, 1, 2, 4, 8 and 24. SC Sampling Time points (hours post dosing): 0, 0.25, 0.5, 1, 2, 4, 8 and 24. Approximately 30 μL blood was obtained via submandibular or saphenous vein for the first several time points. For the last time point, samples were collected via cardiac puncture while the mouse was under anaesthesia. All blood samples were transferred into pre-chilled plastic microcentrifuge tubes containing 2 μL of ethylenediaminetetraacetic acid dipotassium salt (K2-EDTA) (0.5 M) as anticoagulant and placed on wet ice until centrifugation. Harvested blood samples were centrifuged within 30 min of collection at 7000 rpm (8546 × g) 4 °C for about 10 min. After centrifugation, plasma was transferred into another pre-labelled and pre-chilled polypropylene microcentrifuge tubes, then quick-frozen over dry ice and stored at −70 ± 10 °C until LC/MSMS analysis.
LC-MS/MS methods for the quantitative determination of the test article in mouse plasma were developed with an internal standard. Benchtop stability of the compound in mouse plasma was determined at mid QC concentrations in triplicate at 0, 2 h at room temperature. The stability was determined using mean peak area ratio of T2/T0 sample. If the mean peak area ratio is within 80%~120%, the test article in the plasma is considered stable for 2 h at room temperature. […] A set of QC samples consists of three concentration levels (low, middle and high). The sample analysis was performed concurrently with a set of calibration standards and two sets of QC samples using the LC-MS/MS method.
Plasma concentration vs. time data from individual animals was analysed by WinNonLin non-compartmental model (Phoenix WinNonlin 6.2.1, Pharsight, Mountain View, CA). Pharmacokinetic parameter C 0, T ½, CL, Vdss, C max, T max, AUC0-last, AUC0-inf, %F, MRT0-last, MRT0-inf and graphs of plasma concentration vs. time profile were derived.

CCCCCCCCCCC(=O)N[C@@H](CCCCN)C(=O)N[C@@H](CCCCN)C(=O)N[C@@H](CCCCNC(=O)[C@H]1NC(=O)[C@H]2NC(=O)[C@H](NC(=O)[C@@H]3NC(=O)[C@H](CC(N)=O)NC(=O)[C@H](NC(=O)[C@@H](CC(C)C)NC)[C@H](O)c4ccc(c(Cl)c4)Oc4cc3cc(c4O[C@@H]3O[C@H](CO)[C@@H](O)[C@H](O)[C@H]3O[C@H]3C[C@](C)(N)[C@H](O)[C@H](C)O3)Oc3ccc(cc3Cl)[C@H]2O)c2ccc(O)c(c2)-c2c(O)cc(O)cc21)C(N)=O [Compound 21, nC10CO-KK-K(Vancomycin)-NH2]
level at 5 min (male, CD1, plasma, 2 mg/kg IV, 5 min, n=3, read-out: Plasma concentration, Mean IV): 10000 ng/mL
level at […] [1]: 5680 ng/mL
level at 0.5 h [1]: 4330 ng/mL
level at 1 h [1]: 2470 ng/mL
level at 2 h [1]: 1940 ng/mL
level at 4 h [1]: 758 ng/mL
level at 8 h [1]: 49.4 ng/mL
level at […] (male, CD1, plasma, 10 mg/kg SC, n=3, read-out: Plasma concentration, Mean SC): 944 ng/mL
level at 0.5 h [2]: 1440 ng/mL
level at 1 h [2]: 2950 ng/mL
level at 2 h [2]: 3140 ng/mL
level at 4 h [2]: 2320 ng/mL
level at 8 h [2]: 1370 ng/mL
level at 24 h (male, CD1, plasma, 10 mg/kg SC, 24.0 h, read-out: Plasma concentration, Mean SC): 45 ng/mL
AUC0-inf/AUC0-last (IV 2 mg kg-1): 101%
Tlast (IV 2 mg kg-1): 8 h
AUC0-inf/AUC0-last (SC 10 mg kg-1): 101%
Tlast (SC 10 mg kg-1): 24 h
bioavailability (plasma, subcutaneous, SC 10 mg kg-1 vs IV 2 mg kg-1): 43%
AUC(0-inf) (plasma, IV 2 mg kg-1): 10900 ng·h/mL
AUC(0-t) (plasma, IV 2 mg kg-1): 10800 ng·h/mL
C0 (plasma, IV 2 mg kg-1): 14200 ng/mL
clearance (plasma, IV 2 mg kg-1): 3.13 mL/min/kg
half-life (plasma, IV 2 mg kg-1): 1.12 h
MRT inf (plasma, IV 2 mg kg-1): 1.7 h
MRT last (plasma, IV 2 mg kg-1): 1.6 h
Vd (plasma, IV 2 mg kg-1, read-out: Vdss): 0.31 L/kg
AUC(0-inf) (plasma, SC 10 mg kg-1): 23400 ng·h/mL
AUC(0-t) (plasma, SC 10 mg kg-1): 23100 ng·h/mL
Cmax (plasma, SC 10 mg kg-1): 3560 ng/mL
Tmax (plasma, SC 10 mg kg-1): 2.33 h
half-life (plasma, SC 10 mg kg-1): 3.4 h
MRT inf (plasma, SC 10 mg kg-1): 6.3 h
MRT last (plasma, SC 10 mg kg-1): 6 h
